{"source": "paper PMC5408189", "origin": "cited, not measured here", "biological_target": "integrin α5β1 (Homo sapiens) (UniProt P08648)", "sequence (P08648 42-1049, chain 1 of 2)": "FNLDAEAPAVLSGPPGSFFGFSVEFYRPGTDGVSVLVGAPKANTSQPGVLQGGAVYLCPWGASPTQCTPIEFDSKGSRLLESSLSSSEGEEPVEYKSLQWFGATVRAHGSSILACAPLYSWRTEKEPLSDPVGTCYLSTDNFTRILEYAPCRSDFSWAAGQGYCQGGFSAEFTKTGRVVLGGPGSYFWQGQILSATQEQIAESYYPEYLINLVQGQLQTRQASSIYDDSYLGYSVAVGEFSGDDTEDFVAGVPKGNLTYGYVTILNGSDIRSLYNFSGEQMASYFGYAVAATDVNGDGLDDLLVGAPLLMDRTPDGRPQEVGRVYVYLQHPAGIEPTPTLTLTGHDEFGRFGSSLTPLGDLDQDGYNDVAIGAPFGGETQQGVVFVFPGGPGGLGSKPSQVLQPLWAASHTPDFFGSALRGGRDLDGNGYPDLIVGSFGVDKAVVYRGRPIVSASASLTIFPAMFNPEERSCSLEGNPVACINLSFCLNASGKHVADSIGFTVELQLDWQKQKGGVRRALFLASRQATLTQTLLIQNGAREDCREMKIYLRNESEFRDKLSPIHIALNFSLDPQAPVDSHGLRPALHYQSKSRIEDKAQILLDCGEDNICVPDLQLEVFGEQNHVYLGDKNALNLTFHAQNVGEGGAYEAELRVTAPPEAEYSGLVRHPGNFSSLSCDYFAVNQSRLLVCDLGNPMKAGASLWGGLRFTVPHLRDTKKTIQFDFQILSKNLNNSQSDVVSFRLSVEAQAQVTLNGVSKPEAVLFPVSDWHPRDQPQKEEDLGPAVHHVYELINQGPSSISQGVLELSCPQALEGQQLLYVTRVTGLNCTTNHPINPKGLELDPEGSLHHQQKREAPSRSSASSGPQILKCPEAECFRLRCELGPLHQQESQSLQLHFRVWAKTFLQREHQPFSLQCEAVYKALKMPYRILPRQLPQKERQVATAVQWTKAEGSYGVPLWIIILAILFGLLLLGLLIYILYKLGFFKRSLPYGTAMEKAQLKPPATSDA", "sequence (P05556 21-798, chain 2 of 2, further chain)": "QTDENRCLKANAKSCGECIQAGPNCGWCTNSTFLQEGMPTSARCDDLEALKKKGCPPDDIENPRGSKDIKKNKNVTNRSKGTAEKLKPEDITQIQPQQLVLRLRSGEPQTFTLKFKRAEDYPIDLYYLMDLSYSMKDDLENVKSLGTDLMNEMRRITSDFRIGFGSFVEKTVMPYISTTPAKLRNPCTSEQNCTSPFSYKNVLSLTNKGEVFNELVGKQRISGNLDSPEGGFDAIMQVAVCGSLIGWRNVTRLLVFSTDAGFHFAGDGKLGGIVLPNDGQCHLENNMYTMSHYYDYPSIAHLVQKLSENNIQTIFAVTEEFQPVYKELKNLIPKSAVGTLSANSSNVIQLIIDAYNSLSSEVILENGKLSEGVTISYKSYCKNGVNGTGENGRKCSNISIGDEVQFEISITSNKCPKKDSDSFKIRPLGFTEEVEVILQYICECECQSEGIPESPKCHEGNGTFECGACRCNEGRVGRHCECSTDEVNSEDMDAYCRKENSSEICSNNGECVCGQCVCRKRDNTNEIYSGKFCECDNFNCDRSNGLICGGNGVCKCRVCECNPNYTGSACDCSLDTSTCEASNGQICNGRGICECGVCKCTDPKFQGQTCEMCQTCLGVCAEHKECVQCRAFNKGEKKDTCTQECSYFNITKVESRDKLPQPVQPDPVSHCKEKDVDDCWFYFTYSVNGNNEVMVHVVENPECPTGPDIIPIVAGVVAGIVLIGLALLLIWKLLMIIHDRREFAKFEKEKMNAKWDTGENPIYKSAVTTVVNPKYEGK", "assay": "surface plasmon resonance", "data": [{"substance": "CagA (from UniProt P55980)", "values": [{"measurement": "Kd", "result": 0.15, "unit": "nM"}]}]}
